# The supplement of paper PMC9170038
# System: K4 kissing-loop RNA reporter
# Assay: apparent KD of K4 kissing-loop reporter; higher = weaker reporter binding
# Conditions: Eterna round: R107; input ligand: theophylline 20 uM
# Protocol: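 RNA-MaP round R107: designed RNA switches with theophylline, tryptophan, arginine or FMN aptamers are transcribed on-chip within common flanks. They are titrated with a labelled K4 kissing-loop RNA reporter in RNA-MaP buffer (100 mM Tris pH 7.5, 80 mM KCl, 4 mM MgCl2), without ligand or with the indicated ligand. Median apparent KD per design.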
# 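Also: bound reporter read as fluorescence of individual clusters on recovered sequencing chips by microscopy, with normalized cluster intensities fitted with a binding model.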
row,Sequence,apparent KD of K4 kissing-loop reporter
1,AAACAUCACUGGGAGUGAUGUUCUCAGUGACGAGGACCGGUACGGCCGCCACUCGCGAGAGAUAUAGGUAAGUAAUGACAUCAUU [Excl Tryptophan A V5],327 nM
2,UCCUAGGUCUUCAGGCGAAAGCCCUGCGAAGGAGCGUGCGAAAGCACAGGUAGGUCGCGCAGUGAUGUUGCACCUAGGUAAUAAA [#SwitchBubble 21 #K4Late],115 nM
3,UAGCAUUUGCUCGAGUGAUGUUCGAGCGAAGGAGCGCGAGAAAUCGCAGGUAGGUCGCGCUCGAACUAUGAGCGAUCAUUUAUUA [Arg A Ex t2c],463 nM
4,ACCCUACUCGGGCGGCUAUACAGUUAAGCUAAGGAUAUGUAUUCGUACAGAAGGUAGAAGAAGCCGAGUGAUGUUCGACACGCCC [theeternabot_sameState_KL_FMN_A_24],293 nM
5,GGGAAGAAGGCGGCCGCCACUGCAGAAGAGACAGAGAGAGAAGAAGAGGAGUGAUGUUCCAAGAACAGGACCGGGCCAAGAAGGG [whbob_SS_Tryp_B_t28],146 nM
6,ACUGGGUUGACGAAAGUCAACAAAAGAGAAGGAGCGCACGAAAGUGCAGGUAGGUCGCUCAUCCAGUGAUGUUGGAUCAUCCAGA [#SwitchBubble 17 #K4Late],392 nM
7,AGUUCCGACGGAAGGAGCGGACAGUAUUGACGGAAAGGUGCAAGUGAUGUUUGCGCUUGUGUCCAGGUAGGUCGCCGUCGGAACA [Arg B SS t13],79.3 nM
8,AGUGGACAUGUCUAGAGUGAUGUUCUGGAUACCAGACACGAAAGUGUCCCUUGGCAGCCGGAGUGAUGUUCUGGAGUUCACUAAA [Omei KL Theo A Exc B v8],485 nM
9,UGUCGAGUGAUGUUCGAUGUGGUGCAUGCAGAGGAUAUAGGGUGGGCUAGAAGGCUGAAAAGUGCUUCGAGUGAUGUUCGAAGAU [Exclusion FMN A GF9],100 nM
10,GCCGCCGCGGCAGGAUAUAGGUUCAUGGAGUGAUGUUCCAUAACCCGAGUGAUGUUCGUUAUCCGCCUAGAAGGGCCGCGGCGGC,177 nM
11,GCCGUACGCAUGGAUACCAGCUAUUAGAGUGAUGUUCUAUGGCCCUGCCAGAGUAGCUGUAGCCCUUGGCAGCCAUGCGUACGGC,144 nM

# Same assay, conditions: Eterna round: R107; input ligand: tryptophan 2.4 mM
row,Sequence,apparent KD of K4 kissing-loop reporter
1,UGACAUUGCUCAGAUACCAGACAUGAGCAUCAGCCAUGUGCCAAAUACGUACAAAUAAAUGUCCCUUGGCAGCUGAGCAAUGUCU [TheoBX 12],44.4 nM
2,GGUUUAUAGGAGGAUACCAGUACGGAUAAAGUACGUUAAUAGUAGAGUGAUGUUCUAAAGUACCCUUGGCAGCUUAGAGUGAGUU [ExTheophylB.L],78.8 nM
3,AACAGCAAUGCGGCCGCCACUUCGAGGUCAGUGAUGUUGACAGAAUUAAAUAAAGAUCCCAAGAGGAGGACCGGGCAGUGCUGUU [whbob_SS_Tryp_B_t24],416 nM
4,UUUCGGUUCUGAGGAUAUUCGGACAAAUAUAGUGAUGUUGUAUAAGGAGGAGGGUGUUGGCAGUGAGGAGAAGGCAGAAGAGGAU [ExFMNB.T],622 nM
5,GGAUAGGACAGAGGAUAUCUCUGAGGCAAGAAAACUUGUCUCUAAGGAGAUGACUCAGUGAUGUUGAGAGAAGGCUGUCCUAUCG [FmnBX 12 - #SwitchBubble #StaticStem],157 nM
6,GGGAGUGAUGUUCCCACGUUGUCGGUCCUUCGAGGACCGGUACGGCCGCCACUCGCGACCCAGUGAUGUUGGGAUUCACCGUACC [Exclusion Tryptophan A Gf 13],409 nM
7,AAAUAAAGCAGUCACCCAGUGAUGUUGGAAGGAGCGUGCGAAAGCACAGGUAGGUCGCCAAAACCUAAUACUGGCUGCUAAAUAA [#03 K4 Arginine A Exclusion],177 nM
8,CGUUUAUAGCAGGAUACCAGUGCGGAUAAGGUGCGUUAAUAGUAGAGUGAUGUUCUAAAGUACCCUUGGCAGCUUAGAGUGAGUG [#21 K4 Theophylline B Exclusion],108 nM
9,AACUGGGUUCGUGAUACCAGCUCACACAUGAGUGAUGUUCAUGUAGUGGGCAAAAUGUGGAGCCCUUGGCAGCACUGUGACCACG [XTheo-B2],78.5 nM
10,CCAUCGCUAUUCGAUACCAGCUACUUAGUGAUGUUAAGUUUUUAUCCACUGUAGGUGGAAAGCCCUUGGCAGCGAAUAGUGAUGG [Theophylline B K4 26],417 nM
11,UCGAACGAUGGAAGGAGCGCUCGUCAGCCCUGCGAGUGAUGUUCGUGGGUAAAUAGUCGCGAGCAGGUAGGUCGCCAUCUUGAGC [Zainsotima],124 nM
12,CCGGAGGAAGUCGCUUUUCCUGUGGCAUAGAAGGAUAUCCAAUUAAGGAGAAGGUCUAUCUGCCUUAGUGAUGUUAGGAAGUAGA [theeternabot_sameState_KL_FMN_A_23],167 nM
13,UGCGGUAGUGAUGUUACCUCAUUAUACUAGCGAGGACCGGUACGGCCGCCACUCGACUUCCUCCACGCCUAGGCCUCUACGUUCA [theeternabot_sameState_KL_Trp_A_36],98.2 nM
14,GUGAAGGAGCUGCAGUGAUGUUGCAGAGACUAGGAUAUCAGGAAACUGAGAAGGAGUCAACUCCUUCACCUAGACACUGCAGAAA [[F]''-[K1]-[K2]-[F1]-[F2]-[F2]'-[F1]'-[K]'_Design1],143 nM
15,AAAGUUGAUGAGUUGGGUAUGUGUUCCGAAGGAGCGAGAAUUAUCUCAGGUAGGUCGCGGAACAUGAGUGAUGUUCAUGUAUAAA [KL-XArg-A7 #analogue],340 nM
16,UGGGAUGGGCGAGGAUAUGGUGAUGUUUGGGUUGUUAGUGAUGUUGGUGAUGCUGGUGGUGUUUGUCCAGAAGGCGCGGUUUUUU [Bdazzled 3],109 nM
17,CAUAGGAAACUAUGUAUCUCUCCGACUGAAGGAGCGCGUGAAAACGCAGGUAGGUCGCAGAAUUUAACGGAGAGUGAUGUUCUCU [Ex Arginine A K4 10],344 nM
18,GCAAAACGCAGUGAUGUUGCGAUAUCGGAAGGAGCGCGUGAAAACGCAGGUAGGUCGCCGAUUCAGUGAGUAUCUCGCUGUUUGC [Arginine A K4 18],232 nM
19,ACGCUGGUGAAUAACACUAGCGAAUAAUUCCGAGGACCGGUACGGCCGCCACUCGGCUAACUGCGAGUGAUGUUCGAUAAUAAAA [Mat - Mod of OpenEnded 3 - D10],57.5 nM
20,UGGACUAGUGUGAGUGAUGUUCACUUCGAUACCAGCAGAGCGAUCUGCCCUUGGCAGCGAGUUAACUGCCGAAAGGCAAGGUCCA [Theo B SS t9a],382 nM
21,AAGGCCACGAGAAGGAGCGUGUUGUGGAGUGAUGUUCCAUUGUAGACCUAAGGUCUGCGAGCACAGGUAGGUCGCUCGUGGUCAA [whbob_SS_Arginine_B_2t150],117 nM
22,AGUAGGAAACUACAAUCCUCUCUUACUGAAGGAGCGCGUGAAAACGCAGGUAGGUCGCAGGAUUGGAGAGUGAUGUUCUCCUUAA [Ex Arginine A K4 17],320 nM

row,Sequence,apparent KD of K4 kissing-loop reporter
1,AAUAAAAUCACGGCCGCCACUGAUUAGCAUAUUAGGAGUGAUGUUUCUAUGACUAUAUAAUUGAACAGGACCGGGUGAAUAUUUA [#20 K4 Tryptophan B Exclusion],400 nM
2,GUAUCGCUAGGAGGAUAUUUCAAAUAAUAAAUAAAUGGUUAUACGGAGUGAUGUUCCGAUUUACGGAAAGAAGGCCUAGUGAUAC [FMN B 3],147 nM
3,CUUCGUAAAGGCCCAGUGAUGUUGGGCACUCGAGGACCGGUACGGCCGCCACUCGCUCCCUAAGUCGCGCGCGUGGGCCACCGCC [Xeteoredre],113 nM
4,GCAGUGAUGUUGCACGAGUAGGGUAGAGUACGAGGACCGGUACGGCCGCCACUCGUACGGAACUCGCUAAUUUAUGGAAUGGUGA [I],497 nM
5,CGAGUGAUGUUCGUUCGUAUAUUUGGGUGACAGGAUAUGCGGAAACGCAGAAGGGUCGCCUUCGGGUUACCCGAAUUGGCGUUUU [FMN A Model 2],455 nM
6,AUCAUAUCUAGUCAGCCCAGUGAUGUUGGGCGAGGACCGGUACGGCCGCCACUCGCUUCGUUGCGGUGGCUGGCGUUACGACAAA [Inveusma],137 nM
7,AAUAAGGUCGCCGAUACCAGCGCAGGCAGAGCAAAGCUCUGCCAGGUAGUGAUGUUACCGCGCCCUUGGCAGCGGUGGCACGACC [Omei KL Theo B SS C v2],579 nM
8,UUUCUACCGGGAAGGAGCGUGAAUGAUAAUGGAUAUAGUGAUGUUAUAUAUAAGAACGAAUCGCAGGUAGGUCGCCCGGAUGACU [SSArgB.S],310 nM
9,AAAUAAAGGGCGGCCGCCACUGAUCGCCUCCGCGUGGGUAUGUAGUGAUGUUAUAUGGCCGCCAUCAGGACCGGGCCAAAUAAAA [#10 K4 Tryptophan B Same State],193 nM
10,CGAGAAUGUCGACAGUCAUCGGUCCAUGCACGAGGACCGGUACGGCCGCCACUCGAGCGUGGCAGUGAUGUUGCCAGCGCACUAA [KL-XTryp-A14],100 nM
11,AAACAUCACUGGGAGUGAUGUUCUCAGUGACGAGGACCGGUACGGCCGCCACUCGCGAGAGAUAUAGGUAAGUAAUGACAUCAUU [Excl Tryptophan A V5],392 nM
12,UCCUAGGUCUUCAGGCGAAAGCCCUGCGAAGGAGCGUGCGAAAGCACAGGUAGGUCGCGCAGUGAUGUUGCACCUAGGUAAUAAA [#SwitchBubble 21 #K4Late],140 nM
13,UAGCAUUUGCUCGAGUGAUGUUCGAGCGAAGGAGCGCGAGAAAUCGCAGGUAGGUCGCGCUCGAACUAUGAGCGAUCAUUUAUUA [Arg A Ex t2c],370 nM
14,ACCCUACUCGGGCGGCUAUACAGUUAAGCUAAGGAUAUGUAUUCGUACAGAAGGUAGAAGAAGCCGAGUGAUGUUCGACACGCCC [theeternabot_sameState_KL_FMN_A_24],413 nM
15,GGGAAGAAGGCGGCCGCCACUGCAGAAGAGACAGAGAGAGAAGAAGAGGAGUGAUGUUCCAAGAACAGGACCGGGCCAAGAAGGG [whbob_SS_Tryp_B_t28],129 nM
16,ACUGGGUUGACGAAAGUCAACAAAAGAGAAGGAGCGCACGAAAGUGCAGGUAGGUCGCUCAUCCAGUGAUGUUGGAUCAUCCAGA [#SwitchBubble 17 #K4Late],305 nM
17,AGUUCCGACGGAAGGAGCGGACAGUAUUGACGGAAAGGUGCAAGUGAUGUUUGCGCUUGUGUCCAGGUAGGUCGCCGUCGGAACA [Arg B SS t13],89.4 nM
18,AGUGGACAUGUCUAGAGUGAUGUUCUGGAUACCAGACACGAAAGUGUCCCUUGGCAGCCGGAGUGAUGUUCUGGAGUUCACUAAA [Omei KL Theo A Exc B v8],436 nM
19,UGUCGAGUGAUGUUCGAUGUGGUGCAUGCAGAGGAUAUAGGGUGGGCUAGAAGGCUGAAAAGUGCUUCGAGUGAUGUUCGAAGAU [Exclusion FMN A GF9],114 nM
20,GCCGCCGCGGCAGGAUAUAGGUUCAUGGAGUGAUGUUCCAUAACCCGAGUGAUGUUCGUUAUCCGCCUAGAAGGGCCGCGGCGGC,169 nM
21,GCCGUACGCAUGGAUACCAGCUAUUAGAGUGAUGUUCUAUGGCCCUGCCAGAGUAGCUGUAGCCCUUGGCAGCCAUGCGUACGGC,140 nM
